Data: paper PMC10707054

Target: FLAG-PTTG1Δ159
Experiment: co-IP; TCAM2 cells overexpressing FLAG-PTTG1 or FLAG-PTTG1Δ159; IP with M2 αFLAG antibody overnight at 4 °C, Dynabeads; IP lysis buffer 50 mM Tris-Cl pH 7.5, 150 mM NaCl, 1% Nonidet P-40, 1 mM EDTA; Western blot for endogenous SPTBN1, densitometry

binding relative to wild-type PTTG1 (densitometry of the co-IP): 30%
Substance: Spectrin-βII-chain (SPTBN1) (from UniProt Q01082 1-2364) (natural protein)
